Source: patent publication US11548914B2, “IL-2Rgamma binding compounds” (MEDIKINE, INC., priority 2018, dated 2023)
Ends that are not written are not given here.

What was measured:
[1] = molecular target: T1, extracellular domain (ECD) of IL-2Rβ (Homo sapiens, UniProt P14784); experiment: competitive binding of synthetic peptides against phage clones on IL-2Rβ; conditions: for competition with phage clone peptide SEQ ID NO: 58: phage family 1; for competition with phage clone peptide SEQ ID NO: 170: phage family 2A; for competition with phage clone peptide SEQ ID NO: 83: phage family 2B; for competition with phage clone peptide SEQ ID NO: 1034: phage family 2C; for competition with phage clone peptide SEQ ID NO: 1044: phage family 4
T1 construct: Fc; purchased ACRObiosystems, Inc. ILB-H5253
T1 sequence (P14784 27-239): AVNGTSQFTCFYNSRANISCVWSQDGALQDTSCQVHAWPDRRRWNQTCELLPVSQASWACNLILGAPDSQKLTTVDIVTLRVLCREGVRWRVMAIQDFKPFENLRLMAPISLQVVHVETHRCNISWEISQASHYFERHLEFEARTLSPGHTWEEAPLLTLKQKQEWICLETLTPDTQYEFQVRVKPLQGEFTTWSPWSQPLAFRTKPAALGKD
Protocol: (§1) Representative phage clones displaying peptides from IL-2Rβ ligand families were bound to the extracellular domain (ECD) of IL-2Rβ immobilized in microtiter wells. Phage binding was conducted in the presence and absence of synthetic test peptides to determine if phage peptides and test peptides competed for binding to the same sites on IL-2Rβ . Synthetic test peptides were selected to represent peptides from IL-2Rβ ligand families, as well positive and negative control peptides.
(§2) Phage binding to the immobilized IL-2Rβ ECD was detected by staining with antibody against phage coat proteins (anti-phage Ab), staining with labeled secondary antibody against the anti-phage Ab, and scored by reading OD in the microtiter plate optical reader.
(§3) The ELISA signal for each phage binding in the presence and absence of the test peptides was compared to determine which synthetic peptides competed with which phage peptides for binding to the IL-2Rβ subunit.

IL-2Rγc subunit = molecular target: T2, IL-2Rγc subunit (Homo sapiens, UniProt P31785); experiment: competitive binding of synthetic peptides against phage clones on IL-2Rγc; conditions: for competition with phage clone peptide SEQ ID NO 198: phage family 1A; for competition with phage clone peptide SEQ ID NO 224: phage family 1B; for competition with phage clone peptide SEQ ID NO 236: phage family 2; for competition with phage clone peptide SEQ ID NO 248: phage family 3; for competition with phage clone peptide SEQ ID NO 266: phage family 4; for competition with phage clone peptide SEQ ID NO 948: phage family 5
T2 construct: Fc; purchased ACRObiosystems, Inc. ILG-H5256
T2 sequence (P31785 23-254): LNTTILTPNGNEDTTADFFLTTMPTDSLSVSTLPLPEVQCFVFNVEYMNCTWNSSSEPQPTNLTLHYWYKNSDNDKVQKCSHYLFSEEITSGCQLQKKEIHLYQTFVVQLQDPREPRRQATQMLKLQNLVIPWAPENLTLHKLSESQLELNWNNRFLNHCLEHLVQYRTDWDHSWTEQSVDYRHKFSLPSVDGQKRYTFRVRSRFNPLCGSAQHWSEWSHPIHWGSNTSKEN
Protocol: as §1, §2, §3
A similar study was performed to evaluate the binding of IL-2Rγc ligands.

NK-92 cells = experiment: STAT5 phosphorylation in NK-92 cells; assay type: cell-based, human; conditions: NK-92 cells, 10, 1, 0.1 μM, 30 min
Protocol: NK-92 cells were seeded in a 24-well plate at 4×10^5 cells, in 1 mL starvation medium (SM), and incubated overnight at 37° C., 5% CO2. The starvation medium contained RPMI 1640+20% FBS+2 mM L-glutamine+1 mM NaPyr+10 mM HEPES+0.1 mM BME (no rhIL-2 supplement).
Treatment mixtures were of 1 μg/mL Anti-hIL-2 neutralizing antibody (0.2 mg/mL stock) or goat IgG control (1 mg/mL stock) were prepared.
The treatment mixtures and the antibody mix were added to the cells for 30 min at 37° C., 5% CO2. Each sample was then transferred to a 1.5 mL microfuge tube and spun down at 1,500 RPM for 5 minutes. The cells were washed in 1 mL PBS and centrifuged again.
A phosphatase and protease inhibitor cocktail (Thermo #78442) were added to mPER buffer at a 1:100 dilution. After the cells were pelleted, 50 μL of mPER buffer was added to each sample and pipetted repeatedly to homogenize.
The lysates were centrifuged at 14,000 RPM for 5 min at RT. The supernatants were transferred to clean tubes and stored frozen at −80° C.
The treatment reagents included Anti-STAT5 Antibody (rabbit), Cell Signaling No. 94205S; Anti-pSTAT5 Antibody (rabbit), Cell Signaling No. 4322S; and Goat anti-rabbit IgG-HRP, Jackson Immunoresearch No. 111-035-144.

Row | competition with phage clone peptide SEQ ID NO: 58 [1] | competition with phage clone peptide SEQ ID NO: 170 [1] | competition with phage clone peptide SEQ ID NO: 83 [1] | competition with phage clone peptide SEQ ID NO: 1034 [1] | competition with phage clone peptide SEQ ID NO: 1044 [1] | competition with phage clone peptide SEQ ID NO 198 (IL-2Rγc subunit) | competition with phage clone peptide SEQ ID NO 224 (IL-2Rγc subunit) | competition with phage clone peptide SEQ ID NO 236 (IL-2Rγc subunit) | competition with phage clone peptide SEQ ID NO 248 (IL-2Rγc subunit) | competition with phage clone peptide SEQ ID NO 266 (IL-2Rγc subunit) | competition with phage clone peptide SEQ ID NO 948 (IL-2Rγc subunit) | Substance | other results
1 | + (Peptide competes with phage binding.) | + (Peptide competes with phage binding.) | + (Peptide competes with phage binding.) | + (Peptide competes with phage binding.) | − |  |  |  |  |  |  | 169 (NMCLVGDYWPSCQI) [Peptide 169] | 
2 | − | − | − | − | − | + (Peptide competes with phage binding.) | + (Peptide competes with phage binding.) | + (Peptide competes with phage binding.) | + (Peptide competes with phage binding.) | + (Peptide competes with phage binding.) | − | 224 (DCSMWEGVELCW) [Peptide 224] | 
3 |  |  |  |  |  | + (Peptide competes with phage binding.) | + (Peptide competes with phage binding.) | + (Peptide competes with phage binding.) | + (Peptide competes with phage binding.) | + (Peptide competes with phage binding.) | − | 236 (MCWLEWGEWVGSCL) [Peptide 236] | 
4 | −^2 | − | − | − | − |  |  |  |  |  |  | 1044 (RSCYYKRPRLWCSE) [Peptide 1044] | 

Continued, substance first:

Row | Substance | competition with phage clone peptide SEQ ID NO: 58 [1] | competition with phage clone peptide SEQ ID NO: 170 [1] | competition with phage clone peptide SEQ ID NO: 83 [1] | competition with phage clone peptide SEQ ID NO: 1034 [1] | competition with phage clone peptide SEQ ID NO: 1044 [1] | competition with phage clone peptide SEQ ID NO 198 (IL-2Rγc subunit) | competition with phage clone peptide SEQ ID NO 224 (IL-2Rγc subunit) | competition with phage clone peptide SEQ ID NO 236 (IL-2Rγc subunit) | competition with phage clone peptide SEQ ID NO 248 (IL-2Rγc subunit) | competition with phage clone peptide SEQ ID NO 266 (IL-2Rγc subunit) | competition with phage clone peptide SEQ ID NO 948 (IL-2Rγc subunit) | other results
5 | 58 (YDCRIAQVGELCDL) [Peptide 58] | +^1 (Peptide competes with phage binding.) | + (Peptide competes with phage binding.) | + (Peptide competes with phage binding.) | + (Peptide competes with phage binding.) | − | − | − | − | − | − | − | 
6 | 58 (YDCRIAQVGELCDL) [compound 58] |  |  |  |  |  |  |  |  |  |  |  | competition for binding to the IL-2Rγc binding site with the group of IL-2Rγc ligands (IL-2Rγc subunit): does not compete
7 | 202 (RTCTEWENVVLCWV) [Peptide 202] |  |  |  |  |  | +^1 (Peptide competes with phage binding.) | + (Peptide competes with phage binding.) | + (Peptide competes with phage binding.) | + (Peptide competes with phage binding.) | + (Peptide competes with phage binding.) | − | 
8 | 224 (DCSMWEGVELCW) [compound 224] |  |  |  |  |  |  |  |  |  |  |  | competition for binding to the IL-2Rβ binding site with the group of IL-2Rβ ligands [1]: does not compete
9 | 248 (DLSDLCTFWLSQ) [Peptide 248] |  |  |  |  |  | + (Peptide competes with phage binding.) | + (Peptide competes with phage binding.) | + (Peptide competes with phage binding.) | + (Peptide competes with phage binding.) | + (Peptide competes with phage binding.) | − | 
10 | 948 (SLLKCYNASTCASVF) [Peptide 948] |  |  |  |  |  | −^2 | − | − | − | − | + (Peptide competes with phage binding.) | 
11 | 948 (SLLKCYNASTCASVF) [compound 948] |  |  |  |  |  |  |  |  |  |  |  | competition for binding to the IL-2Rγc binding site with the group of IL-2Rγc ligands (IL-2Rγc subunit): does not compete
12 | 1042 (CYEVGDYCQSPL) [Peptide 1042] | + (Peptide competes with phage binding.) | + (Peptide competes with phage binding.) | + (Peptide competes with phage binding.) | + (Peptide competes with phage binding.) | − |  |  |  |  |  |  | 
13 | 1044 (RSCYYKRPRLWCSE) [compound 1044] |  |  |  |  |  |  |  |  |  |  |  | competition for binding to the IL-2Rβ binding site with the group of IL-2Rβ ligands [1]: does not compete
14 | Compound A: heterodimer of SEQ. ID. NO: 58 and SEQ ID. NO. 224 (chain 1 YDCRIAQVGELCDL; chain 2 DCSMWEGVELCW; cysteine pairing not given here; also: heterodimer, linkage not given here) |  |  |  |  |  |  |  |  |  |  |  | STAT5 phosphorylation (pSTAT5), Western Blot (NK-92 cells): induced (in a dose-responsive manner) STAT5 phosphorylation
15 | Compound B: heterodimer of SEQ. ID. NO: 58 and SEQ ID. NO. 237 (chain 1 YDCRIAQVGELCDL; chain 2 LCFSEFLGEWVDCN; cysteine pairing not given here; also: heterodimer, linkage not given here) |  |  |  |  |  |  |  |  |  |  |  | STAT5 phosphorylation (pSTAT5), Western Blot (NK-92 cells): induced (in a dose-responsive manner) STAT5 phosphorylation
